Assay [1] addresses T1, Helicoverpa armigera chitin deacetylase (Helicoverpa armigera).
T1 construct: the tag is not part of the printed entry; also called CDA; target CDA antigen
T1 chain: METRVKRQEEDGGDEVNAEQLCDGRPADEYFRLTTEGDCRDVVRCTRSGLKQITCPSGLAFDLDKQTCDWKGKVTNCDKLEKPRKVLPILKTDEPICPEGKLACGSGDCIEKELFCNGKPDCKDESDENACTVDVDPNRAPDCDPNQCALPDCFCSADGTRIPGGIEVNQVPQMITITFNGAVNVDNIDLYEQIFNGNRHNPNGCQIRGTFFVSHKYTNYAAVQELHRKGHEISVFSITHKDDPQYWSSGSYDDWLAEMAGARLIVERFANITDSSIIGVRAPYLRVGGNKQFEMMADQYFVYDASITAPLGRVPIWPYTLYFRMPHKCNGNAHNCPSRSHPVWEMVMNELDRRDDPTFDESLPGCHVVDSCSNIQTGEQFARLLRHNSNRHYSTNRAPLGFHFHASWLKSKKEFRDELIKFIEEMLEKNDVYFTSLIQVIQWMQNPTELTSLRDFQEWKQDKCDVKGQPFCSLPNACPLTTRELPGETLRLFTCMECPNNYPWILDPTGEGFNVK
Nature of the assay: ELISA, plate coated with 10 ug/ml target protein, 2 ug/ml nanobody, anti-VHH-HRP, A450. On the technique in general: ELISA stands for enzyme-linked immunosorbent assay.

Assay [2] deals with T2, Helicoverpa armigera cytochrome p450 monooxygenase (Helicoverpa armigera, UniProt Q95031 23-504).
T2 construct: the tag is not part of the printed entry; also called target P450 antigen
T2 chain: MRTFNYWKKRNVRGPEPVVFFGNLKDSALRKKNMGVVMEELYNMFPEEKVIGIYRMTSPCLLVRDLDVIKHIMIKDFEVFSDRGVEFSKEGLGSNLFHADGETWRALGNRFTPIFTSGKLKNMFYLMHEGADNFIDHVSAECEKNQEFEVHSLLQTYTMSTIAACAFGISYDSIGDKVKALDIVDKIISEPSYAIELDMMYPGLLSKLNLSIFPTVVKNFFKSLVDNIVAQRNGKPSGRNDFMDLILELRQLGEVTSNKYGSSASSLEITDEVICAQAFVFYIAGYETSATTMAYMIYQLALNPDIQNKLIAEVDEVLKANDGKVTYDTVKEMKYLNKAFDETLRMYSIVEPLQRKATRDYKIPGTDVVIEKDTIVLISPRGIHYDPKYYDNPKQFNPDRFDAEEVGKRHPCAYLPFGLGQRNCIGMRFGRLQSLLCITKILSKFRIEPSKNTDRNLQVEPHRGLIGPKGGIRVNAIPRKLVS
The description is as above.

In assay [3] the target is T3, Helicoverpa armigera V-ATPase subunit c (Helicoverpa armigera).
T3 construct: also called V-ATPases Subunit C; ATPase V subunit c
T3 chain: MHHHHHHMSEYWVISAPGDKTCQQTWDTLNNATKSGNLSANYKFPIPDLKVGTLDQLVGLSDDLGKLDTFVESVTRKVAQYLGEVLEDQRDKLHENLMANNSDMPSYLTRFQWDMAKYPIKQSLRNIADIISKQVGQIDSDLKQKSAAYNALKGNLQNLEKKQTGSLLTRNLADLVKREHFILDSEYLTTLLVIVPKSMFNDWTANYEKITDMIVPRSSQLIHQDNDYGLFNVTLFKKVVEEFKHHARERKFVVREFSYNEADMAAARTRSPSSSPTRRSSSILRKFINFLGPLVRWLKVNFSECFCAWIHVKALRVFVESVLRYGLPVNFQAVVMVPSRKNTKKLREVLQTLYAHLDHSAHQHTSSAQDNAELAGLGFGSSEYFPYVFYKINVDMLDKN
Description: ELISA, plate coated with the target antigen.

B1: CDA05 (VHH)
VHH: QVQLQESGGGLVQPGGSLRLSCTASGRTVSNYGMAWFRQVAGKERAFVAAINNRGDSKYYAESVKGRFTIARDNAKNTVYLQMNVLKPEDTAVYYCAADRRSLVRYEYNYWGQGTQVTVSS
notes: Llama nanobody, His-tagged, expressed in E. coli SHuffle T7; also called CDA5; anti-CDA nanobody CDA05
For B1, the binding result in assay [1] is “binds”.

B2: CDA10 (VHH)
VHH: QVQLQESGGGLVQTGESLRLSCAASGRTLSSYTMGWFRQAPGKEREIVAASSWSGGRTYYADSVKGRFTMSRNNAENTVYLQMNSLNPEDTAVYYCAADSSRAPRTYNYWGQGTQVTVSS
notes: Llama nanobody, His-tagged, expressed in E. coli SHuffle T7; also called anti-CDA nanobody CDA10
On to B2, for which the binding result in assay [1] is on record as “binds”.

B3: CDA01A (VHH)
VHH: QVQLQESGGGLVQAGGSLRLSCAASGRTFNTYAMGWFRQAPGKEREFVAAMNRDGSTVLYADSVKGRFAISKDNAKNTGYLQMNSLKPEDTAIYYCAANARYSDYTDGQSFVSWGQGTQVTVSS
notes: Llama nanobody, His-tagged, expressed in E. coli SHuffle T7; also called CDA1a; anti-CDA nanobody CDA01A
Take B3: the binding result in assay [1] was “binds”.

B4: CDA07A (VHH)
VHH: QVQLQESGGGLVQAGGSLRLSCVASGRTFGNYGLAWFRQPPGKEREFVAAINNRGGNTYYADSVKGRFTISRDNAANTLYLQMSSLKPEDTAVYYCAADRTSLHSYRYTYWGQGTQVTVSS
notes: Llama nanobody, His-tagged, expressed in E. coli SHuffle T7; also called CDA7a; CDA7A
For B4, the binding result in assay [1] is given as “binds”.

B5: P45004 (VHH)
VHH: QVQLQESGGGLVQAGGSLRLSCAASGRTFSRINMGWFRQAPGKEREFVAVISWNSIADYADSVKARFTISRDNAKNTVYLQMNSLKPEDTAVYYCAASAPFRSKNPTLYLYWGRGTQVTVSS
notes: Llama nanobody, His-tagged, expressed in E. coli SHuffle T7; also called anti-P450 nanobody P45004
Regarding B5, the binding result in assay [2] is recorded as “binds”.

B6: P45003A (VHH)
VHH: QVQLQESGGGLVQAGDSLRLSCVASKRSFSSHAMGWFRQAPGKAREFVATISWNSGSTFYSDSSRGRFTISRDNGKNTLYLQMNSLKPEDTAVYYCAAASGRGITASDFRYDAWGQGTQVTVSS
notes: Llama nanobody, His-tagged, expressed in E. coli SHuffle T7; also called anti-P450 nanobody P45003A
For B6, the binding result in assay [2] is on record as “binds”.

B7: P45001A (VHH)
VHH: QVQLQESGGGLVQTGGSLRLSCAASGRTSRSYAMGWFRQAPGKERELVADIAWSDGRIYYSDSVKGRFTISRDNAKNTVYLEIDSLKPGDTAVYYCASRARGTVLYNYWGQGTQVTVSS
notes: Llama nanobody, His-tagged, expressed in E. coli SHuffle T7; also called anti-P450 nanobody P45001A
Regarding B7, the binding result in assay [2] was “binds”.

B8: VAT0101A (VHH)
VHH: QVQLQESGGGLVQAGGSLRLSCAASGSTFSGYIMSWFRQPPGKERELVAAITYVGSTYVEDSVKGRFTISRDNAKNTVSLQMNSLKPEDTAVYYCRAREGEQLDFWGQGTQVTVSS
notes: Llama nanobody, His-tagged, expressed in E. coli SHuffle T7; also called anti-VAT nanobody VAT0101A
For the molecule B8, the binding result in assay [3] is “binds”.

The values are drawn from patent US20220386594A1 (IBI AG INNOVATIVE BIO INSECTICIDES, published 2022).
